Four molecules from patent US10450368 (DUKE UNIVERSITY, dated 2019) can be followed below.

In one assay the target is CH505w136.B18D8gp120. Description: ELISA. On the technique in general: In an ELISA, binding on a coated surface is turned into a signal by an enzyme label.
The target of the next assay is T1, CH505w020.14D8gp120.
T1 construct: also called CH505w20.14 gp120
Briefly: ELISA.

The target in the next assay is CH0505_CON D7gp120/293i. Description: ELISA.
The target of a further assay is CH505.M19D8gp120. Briefly: ELISA.
The target in a further assay is CH505.M5D8gp120293F. Briefly: ELISA.
In another assay the target is T2, CH505.TF mutant gp120 M6 (HIV-1).
T2 construct: domain: gp120
Briefly: ELISA.

Another assay concerns the target CH505.M11D8gp120/293F. Briefly: ELISA.
The target in another assay is CH505.M21D8gp120/293F. Briefly: ELISA.
A further assay addresses CH505.M7D8gp120/293F. Description: ELISA.
The next assay addresses CH505.M10D8gp120. Briefly: ELISA.
A further assay has as its target CH505.M9D8gp120/293F. Description: ELISA.
The next assay has as its target T3, CH505.TF mutant gp120 M8 (HIV-1).
T3 construct: domain: gp120
Briefly: ELISA.

Assay [1] addresses T4, CH505.TF mutant gp120 M20 (HIV-1).
T4 construct: domain: gp120
Briefly: ELISA.

A further assay concerns the target T5, Scl-70 (UniProt P11387 1-765).
T5 sequence: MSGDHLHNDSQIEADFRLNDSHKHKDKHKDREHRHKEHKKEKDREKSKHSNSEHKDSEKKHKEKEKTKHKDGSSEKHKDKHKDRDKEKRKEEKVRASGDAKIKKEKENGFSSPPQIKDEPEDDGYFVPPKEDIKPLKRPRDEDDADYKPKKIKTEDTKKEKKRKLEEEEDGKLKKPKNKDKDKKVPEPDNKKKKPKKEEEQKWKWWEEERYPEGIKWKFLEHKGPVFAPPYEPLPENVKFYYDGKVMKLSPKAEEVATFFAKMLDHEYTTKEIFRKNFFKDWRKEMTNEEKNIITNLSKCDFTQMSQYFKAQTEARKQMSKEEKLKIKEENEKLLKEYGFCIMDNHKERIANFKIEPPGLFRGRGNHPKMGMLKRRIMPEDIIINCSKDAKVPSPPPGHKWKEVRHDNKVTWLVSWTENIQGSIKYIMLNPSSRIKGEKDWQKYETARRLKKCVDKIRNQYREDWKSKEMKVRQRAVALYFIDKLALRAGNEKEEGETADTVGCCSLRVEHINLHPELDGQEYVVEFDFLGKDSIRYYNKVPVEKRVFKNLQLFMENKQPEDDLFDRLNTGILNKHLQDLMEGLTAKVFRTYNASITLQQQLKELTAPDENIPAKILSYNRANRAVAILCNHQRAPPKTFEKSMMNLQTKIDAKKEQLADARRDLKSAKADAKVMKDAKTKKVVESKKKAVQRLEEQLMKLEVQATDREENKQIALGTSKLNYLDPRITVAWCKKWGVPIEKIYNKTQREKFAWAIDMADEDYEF
Description: ELISA, LogAUC grade.

Another assay has as its target T6, CH505w030.20D8gp120/293F.
T6 construct: also called CH505w30.20 gp120
Description: ELISA.

The next assay has as its target T7, CH505.w30.12D8gp120.
T7 construct: also called CH505w30.12 gp120
Briefly: ELISA.

For another assay, the target named is T8, Jo-1 (UniProt P12081 1-509).
T8 sequence: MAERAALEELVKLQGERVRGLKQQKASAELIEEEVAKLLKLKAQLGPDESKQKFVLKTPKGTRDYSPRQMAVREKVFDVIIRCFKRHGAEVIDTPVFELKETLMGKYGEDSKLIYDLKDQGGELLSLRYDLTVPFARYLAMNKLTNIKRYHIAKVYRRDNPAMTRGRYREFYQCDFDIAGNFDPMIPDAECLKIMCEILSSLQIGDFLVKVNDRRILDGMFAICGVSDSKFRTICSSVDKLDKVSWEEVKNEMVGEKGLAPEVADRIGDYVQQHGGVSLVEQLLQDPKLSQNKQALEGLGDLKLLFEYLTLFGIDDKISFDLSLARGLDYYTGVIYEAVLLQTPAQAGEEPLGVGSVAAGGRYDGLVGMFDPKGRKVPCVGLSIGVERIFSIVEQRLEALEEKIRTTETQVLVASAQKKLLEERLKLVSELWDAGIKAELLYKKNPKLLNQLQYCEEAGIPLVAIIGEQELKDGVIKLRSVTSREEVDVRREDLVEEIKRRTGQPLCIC
Briefly: ELISA, LogAUC grade.

A further assay has as its target T9, SSB (UniProt P05455 1-408).
T9 sequence: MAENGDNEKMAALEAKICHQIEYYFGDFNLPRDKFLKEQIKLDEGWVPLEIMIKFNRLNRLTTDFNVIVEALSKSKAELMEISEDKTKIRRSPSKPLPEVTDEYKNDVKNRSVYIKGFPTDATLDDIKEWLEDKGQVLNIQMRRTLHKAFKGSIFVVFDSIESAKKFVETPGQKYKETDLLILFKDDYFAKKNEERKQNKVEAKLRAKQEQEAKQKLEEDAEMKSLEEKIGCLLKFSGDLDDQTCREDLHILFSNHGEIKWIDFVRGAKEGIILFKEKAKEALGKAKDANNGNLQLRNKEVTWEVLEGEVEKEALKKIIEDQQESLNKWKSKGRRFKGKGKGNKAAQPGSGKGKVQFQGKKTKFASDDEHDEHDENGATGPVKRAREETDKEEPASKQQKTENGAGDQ
Description: ELISA, LogAUC grade.

A further assay deals with T10, Centromere B (UniProt P07199 1-599).
T10 construct: also called Cent B
T10 sequence: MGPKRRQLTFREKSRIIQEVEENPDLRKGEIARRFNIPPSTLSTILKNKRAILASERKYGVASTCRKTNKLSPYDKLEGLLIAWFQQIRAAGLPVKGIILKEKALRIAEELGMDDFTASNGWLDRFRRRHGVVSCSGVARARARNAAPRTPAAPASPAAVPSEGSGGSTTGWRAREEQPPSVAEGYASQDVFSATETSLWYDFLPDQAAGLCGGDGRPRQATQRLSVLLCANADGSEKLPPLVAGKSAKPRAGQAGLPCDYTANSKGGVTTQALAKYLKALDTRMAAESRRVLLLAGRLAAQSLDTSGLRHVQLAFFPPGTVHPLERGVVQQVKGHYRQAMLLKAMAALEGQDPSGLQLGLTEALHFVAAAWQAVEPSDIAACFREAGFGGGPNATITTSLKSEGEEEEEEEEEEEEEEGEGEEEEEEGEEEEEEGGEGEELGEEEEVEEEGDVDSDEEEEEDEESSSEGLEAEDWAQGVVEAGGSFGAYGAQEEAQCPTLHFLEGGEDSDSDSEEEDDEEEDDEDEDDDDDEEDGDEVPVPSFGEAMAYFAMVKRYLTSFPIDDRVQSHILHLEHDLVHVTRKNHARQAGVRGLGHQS
Briefly: ELISA, LogAUC grade.

B1: CH556 (antibody, V domains shown)
VH: QVQLVQSGGTVKSPGTSVTLSCKTSGYNFIDYYIHWVRRAPGQRPELMGYIDPSHGRPDYEGKFRDRISLYRDTSTSVVYMDVRGLRLDDTALYYCVRGGGVEVSSNHYDHWGPGTMVFVSP
VL: ETTLTQSPDTLSASPGERVTLSCRAAQSVGSQVAWFRHIRGQPPRLLISGASTRAAGVPARFSGSGSGTDFTLTISGMQSEDFAEYFCQQYHMWWTFGQGTRVDKN
notes: also called CH235.11
B1: the LogAUC in the assay with CH505w136.B18D8gp120 turned out to be 0.11; with CH505w020.14D8gp120, 0.11; with CH0505_CON D7gp120/293i, 0.26; in the assay with CH505.M19D8gp120, 0.09; with CH505.M5D8gp120293F, 1.26; with CH505.TF mutant gp120 M6, 0.09. Also, the LogAUC with CH505.M11D8gp120/293F is 0.11; in the assay with CH505.M21D8gp120/293F, 0.1; in the assay with CH505.M7D8gp120/293F, 0; with CH505.M10D8gp120, 1.06; with CH505.M9D8gp120/293F it was 0.23; in the assay with CH505.TF mutant gp120 M8, 0.29. The LogAUC in assay [1] stood at 0.28; with CH505w030.20D8gp120/293F, 0.69; with CH505.w30.12D8gp120 it was 0. The binding result with Scl-70 is “no binding”.

B2: CH235.13 (antibody, V domains shown)
VH: QVQLVQSGGGVKRPGSTTTISCVASGYSFNDYYIHWVRQAPGQGLEVLGFIDPSNGRTNYAGAFGDRFSMYRDKSMETLYMDLRNLRSDDTAMYYCVRNVGTAGSLLHYDHWGTGSKIIVSS
VL: EIVLTQSPATLSASPGERVTLTCRASRGVRNNVAWYQHNVGQSPRLLIYDASTRAPGIPARFSGSASGTEFTLAISSIQSEDFTLYYCHQYNNWWTFGQGTRVDIN
Turning to B2, the LogAUC with CH505w136.B18D8gp120 amounted to 1.76; with CH505w020.14D8gp120 it was 6.14; in the assay with CH0505_CON D7gp120/293i, 6.23; in the assay with CH505.M19D8gp120, 2.89; with CH505.M5D8gp120293F, 6.53; in the assay with CH505.TF mutant gp120 M6 it was 6.07. The LogAUC with CH505.M11D8gp120/293F amounted to 5.35; in the assay with CH505.M21D8gp120/293F it was 0; in the assay with CH505.M7D8gp120/293F, 0; with CH505.M10D8gp120 it was 6.38; with CH505.M9D8gp120/293F, 0; in the assay with CH505.TF mutant gp120 M8 it was 0. Moreover, the LogAUC in assay [1] came to 0; with CH505w030.20D8gp120/293F, 5.41; with CH505.w30.12D8gp120, 1.05. Also, in the assay with Scl-70, the binding result was “no binding”.

B3: CH235 UCA (antibody, V domains shown)
VH: QVQLVQSGAEVKKPGASVKVSCKASGYTFTSYYMHWVRQAPGQGLEWMGIINPSGGSTSYAQKFQGRVTMTRDTSTSTVYMELSSLRSEDTAVYYCARDVGTEGSLLHFDYWGQGTLVTVSS
VL: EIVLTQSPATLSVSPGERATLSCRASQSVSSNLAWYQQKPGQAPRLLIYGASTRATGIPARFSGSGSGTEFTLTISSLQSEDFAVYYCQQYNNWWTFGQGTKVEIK
notes: also called unmutated common ancestor of the CH235 lineage
As to B3, the LogAUC came out at 0 with CH505w136.B18D8gp120; 0 with CH505w020.14D8gp120; 0 with CH0505_CON D7gp120/293i; 0 with CH505.M19D8gp120; 0.24 with CH505.M5D8gp120293F; 0 with CH505.TF mutant gp120 M6. For the same molecule, the LogAUC with CH505.M11D8gp120/293F, with CH505.M21D8gp120/293F, with CH505.M7D8gp120/293F, with CH505.M10D8gp120, with CH505.M9D8gp120/293F and in the assay with CH505.TF mutant gp120 M8 was 0 in each case. Besides, the LogAUC (in [1]; with CH505w030.20D8gp120/293F; in the assay with CH505.w30.12D8gp120) was 0 each time. For the same molecule, the binding result with Jo-1, with Scl-70, with SSB and in the assay with Centromere B was “no binding” throughout.

B4: CH555 (antibody, V domains shown)
VH: QVQLVQSGATVKKPRASVTLSCRTSGYNFIDYFIHWVRRAPGQRLEVMGYIDPSRGRPDYAPNFRDRVSLYRDTSMSIVYLDLRDLTPDDTAIYYCVRSEGTEGTVLHYDHWGPGTRVTVSP
VL: EIVLTQSPDTLSASPGERVTLSCRASQSVGTKVAWYRHVRGQPPRLLIYGASTRAAGIPARFSGGGSGTNFTLIINNFQSEDFAEYLCQQYKSWWTFGQGTKVDNK
notes: also called CH235.10
B4: the LogAUC with CH505w136.B18D8gp120 turned out to be 5.54; in the assay with CH505w020.14D8gp120, 5.63; with CH0505_CON D7gp120/293i, 7.23; with CH505.M19D8gp120 it was 0; with CH505.M5D8gp120293F, 2.62; with CH505.TF mutant gp120 M6 it was 5.67. Also, the LogAUC with CH505.M11D8gp120/293F amounted to 5.05; with CH505.M21D8gp120/293F, 0; with CH505.M7D8gp120/293F, 0.09; in the assay with CH505.M10D8gp120, 1.06; in the assay with CH505.M9D8gp120/293F, 0.07; with CH505.TF mutant gp120 M8 it was 0. Moreover, the LogAUC in assay [1] amounted to 0; with CH505w030.20D8gp120/293F it was 5.62; with CH505.w30.12D8gp120, 0. Moreover, the binding result in the assay with Scl-70 is on record as “no binding”.
